The values that follow are results of earlier work, collected in PMC2827818.

For the data set, the target named is IFNalpha2 (Homo sapiens) (UniProt P01563).

Consider IFNAR2 ECD (from UniProt P48551), for which the Kd (commonly the concentration at which binding is half-saturated) is 10 nM.
